Measured values from article PMC6990103 (Journal of molecular biology, 2019).

How the values were obtained:
[1] = biological target: T1, recombinant SUDV Boniface 1976 NP (Sudan ebolavirus, Boniface 1976, UniProt Q9QP77); experiment: far-Western, overlay or dot blot; conditions: both partners purified
T1 construct: also called SUDV NP; full-length NP polymers

[2] = biological target: T2, recombinant TAFV IC1 1994 NP (Tai Forest ebolavirus (TAFV)., UniProt B8XCN6); experiment: far-Western, overlay or dot blot; conditions: both partners purified
T2 construct: also called TAFV NP

[3] = biological target: T3, recombinant BDBV 2007 NP (Bundibugyo ebolavirus (BDBV)., UniProt B8XCM7); experiment: far-Western, overlay or dot blot; conditions: both partners purified
T3 construct: also called BDBV NP

[4] = biological target: T4, nluc-NP612 fusion protein, SUDV (Sudan ebolavirus, Boniface 1976 …, UniProt Q9QP77); experiment: far-Western, overlay or dot blot; conditions: both partners purified
T4 construct: also called SUDV NP612 C-terminus; source: E. coli BL21(DE3)+pRARE, cytosolic, purified (IMAC, SEC)

[5] = biological target: T5, nluc-NP612 fusion protein, RESTV (Reston ebolavirus, Reston 1989 (isolate …, UniProt Q8JPY1)); experiment: far-Western, overlay or dot blot; conditions: both partners purified
T5 construct: also called RESTV NP612 C-terminus; source: E. coli BL21(DE3)+pRARE, cytosolic, purified (IMAC, SEC)

[6] = biological target: T6, nluc-NP612 fusion protein, TAFV (Tai Forest ebolavirus, IC1 1994, UniProt B8XCN6); experiment: far-Western, overlay or dot blot; conditions: both partners purified
T6 construct: also called TAFV C-terminus; source: E. coli BL21(DE3)+pRARE, cytosolic, purified (IMAC, SEC)

[7] = biological target: T7, nluc-NP612 fusion protein, BDBV (Bundibugyo ebolavirus, Uganda 2007, UniProt B8XCM7); experiment: far-Western, overlay or dot blot; conditions: both partners purified
T7 construct: also called BDBV NP612 C-terminus; source: E. coli BL21(DE3)+pRARE, cytosolic, purified (IMAC, SEC)

[8] = biological target: T8, NP of SUDV Boniface 1976 in live virus preparation (Sudan ebolavirus, Boniface 1976, UniProt Q9QP77); experiment: ELISA; conditions: one partner purified
T8 construct: also called SUDV (virus)

[9] = biological target: T9, NP of TAFV IC1 1994 in live virus preparation (Tai Forest ebolavirus (TAFV)., UniProt B8XCN6); experiment: ELISA; conditions: one partner purified
T9 construct: also called TAFV (virus)

[10] = biological target: T1, recombinant SUDV Boniface 1976 NP; experiment: ELISA; conditions: both partners purified
[11] = biological target: T2, recombinant TAFV IC1 1994 NP; experiment: ELISA; conditions: both partners purified
[12] = biological target: T3, recombinant BDBV 2007 NP; experiment: ELISA; conditions: both partners purified
[13] = biological target: T4, nluc-NP612 fusion protein, SUDV; experiment: ELISA; conditions: both partners purified
[14] = biological target: T5, nluc-NP612 fusion protein, RESTV; experiment: ELISA; conditions: both partners purified
[15] = biological target: T6, nluc-NP612 fusion protein, TAFV; experiment: ELISA; conditions: both partners purified
[16] = biological target: T7, nluc-NP612 fusion protein, BDBV; experiment: ELISA; conditions: both partners purified

Measured: binding result

B1: sdAb ZE alkaline phosphatase fusion (VHH)
VHH: QVQLQESGGGLVQPGGSLRLSCTASGFTLAEYGVGWFRQAPGKERELVALIAVGGTTHSIDSVKGRFTISRDNMKNTVYLQMNSLNVEDTAVYYCNAYSSAYDRNYWGQGTQVTVSS
notes: also called sdAb-AP fusion of ZE; source: previously generated [9], stored at -80 °C
binds: [1] | [2] | [3] | [4] | [5] | [6] | [7]

B2: sdAb ZE, biotinylated (from pecan126) (VHH)
VHH: QVQLQESGGGLVQPGGSLRLSCTASGFTLAEYGVGWFRQAPGKERELVALIAVGGTTHSIDSVKGRFTISRDNMKNTVYLQMNSLNVEDTAVYYCNAYSSAYDRNYWGQGTQVTVSS
notes: also called anti-Ebola virus sdAb; oriented sdAb captor; source: E. coli HBV88, pecan126 preparations
binds: [8] | [9] | [10] | [11] | [12] | [13] | [14] | [15] | [16]
